Measurements reported in patent publication US20110263459, “DIRECT SELECTION OF STRUCTURALLY DEFINED APTAMERS” (published 2011).

Assays:
[1] = target: HIV-1 nucleocapsid protein NCp7 (HIV-1) (UniProt P03349); settings: Cy3-NCp7 microarray; 3.5x background (AUA)
[2] = target: T1, HIV-1 nucleocapsid protein NCp7 (HIV-1, UniProt P03349 P03349:380-434); assay: Trp37 fluorescence quenching, PBS, 5 mM MgCl2, 25 C; negative on chip; settings: tags: unlabelled for Trp titration; Cy3/Dylight-labelled for chips; made in house, >95% pure; hairpin
[3] = target: T1, HIV-1 nucleocapsid protein NCp7; assay: Trp37 fluorescence quenching, PBS pH 7.4, 0.1% Tween-20, 5 mM MgCl2, 25 C; 1:1; settings: tags: unlabelled for Trp titration; Cy3/Dylight-labelled for chips; made in house, >95% pure; hairpin
[4] = target: T1, HIV-1 nucleocapsid protein NCp7; assay: multiple NCp7 bound per TBA in Trp37 titration; positive on chip; settings: tags: unlabelled for Trp titration; Cy3/Dylight-labelled for chips; made in house, >95% pure; G4

TGTNNN [N6-56(64) pool]
binding signal (fold of GUG control) [1]: 1.5

GGACUAGCGAUAGCUAGUCC (ssRNA) [A control (SL3-AUA)]
Kd [2]: 200 nM

GGACUAGCGGUGGCUAGUCC (ssRNA) [G control (SL3-GUG)]
Kd [3]: 10 nM

GGTTGGTGTGGTTGG (structured_DNA) [control 33 (TBA)]
binding result [4]: binds
